Assay results reported in patent US20210077592A1, “COMPOSITION TO PREVENT INTESTINAL DAMAGE” (FUSION FARM S.R.L. SEMPLIFICATA, priority 2017, published 2021).

Tests used:
Caco-2 cells [1] = experiment: Electron Microscopy (SEM) of microvilli of Caco-2 cells after damage induction; type: cell-based; conditions: pretreatment 60 h without glutamine, then 60 mM ethanol 4 h, 750x-10000x
Experimental: The same cells without damage induction (NC) and with damage induction (PC), as indicated above, were finally evaluated by Electron Microscopy (SEM) at different magnifications.
(§1) According to the experimental protocol, to evaluate the efficacy of the composition of the invention in damage prevention, sodium butyrate (2 mM concentration) and lactoferrin (400 μg/ml concentration), either alone or in combination, were applied on Caco-2 cells during stress induced by absence of glutamine, increasing the time of said deprivation, with respect to the conditions tested during the development of the model, and therefore of stress induction, to 60 hours, to make more evident differences in cells behavior in the different treatment situations. At the end of 60 hours, the products were removed, and damage was induced for 4 h with 60 mM ethanol. The parameters were evaluated at the end.
The same cells were finally evaluated also by Electron Microscopy SEM, at various magnifications.

[2] = Solubility of lactoferrin in aqueous solution in the presence of sodium butyrate; type: physicochemical; conditions: with or without added sodium butyrate
Experimental: Various solutions, with increasing ratios between sodium butyrate amount and lactoferrin amount, were prepared to verify the possible effect of sodium butyrate addition on lactoferrin solubility in aqueous solution.
In particular, ten different mixtures were prepared, whose weight rations are set out in the following Table 1, and the presence of undissolved body of lactoferrin was observed as a function of the increasing amount of sodium butyrate added to the solution.

Caco-2 cells [3] = experiment: Lucifer Yellow (LY) assay of paracellular permeability in Caco-2 intestinal damage model; type: cell-based
Experimental: A protocol was developed based on Caco-2 cell inserts model (CACOREADY™ cells, lot no. 24 676 101716 and no. 24 680 111416, Readycell manufacturer) consisting in two steps:
1. Induction of epithelial damage (40 h incubation in glutamine free medium followed by stress induced by 60 mM ethanol for 4 h)
2. Evaluation of the single products first, and then applied in combination during stress induced by the absence of glutamine (60 h), and with subsequent stress induced by ethanol, to evaluate the efficacy in preventing damage. […]
Cells without damage induction (NC=without damage) and with damage induction (PC) were evaluated with the Lucifer Yellow (LY) assay, which verifies the integrity of the cellular junctions in presence of the test substance. […]
as §1, with “At the end of 60 hours, the products were removed, and damage was induced for 4 h with 60 mM ethanol.” left out, “end. […]” for “end.”

[4] = tested on: Occludin and Zonula Occludens in Caco-2 cells; experiment: Fluorescence immunolabeling of Occludin and Zonula Occludens in Caco-2 cells after damage induction; type: cell-based; conditions: pretreatment 60 h without glutamine, then 60 mM ethanol 4 h
Experimental: As it can be seen by FIG. 1, the damage induced an increase in permeability. The same cells without damage induction (NC) and with damage induction (PC), as indicated above, were further evaluated by fluorescence immunolabeling of Occludina and Zonula Occludens (proteins present in the intestinal membrane intracellular junctions).
as §1
To confirm the observed behavior, an evaluation using fluorescence immunolabeling of Occludin and Zonula Occludens was also performed.

B1: lactoferrin (protein, UniProt P02788 20-710, looked up)
Lactotransferrin: GRRRSVQWCAVSQPEATKCFQWQRNMRKVRGPPVSCIKRDSPIQCIQAIAENRADAVTLDGGFIYEAGLAPYKLRPVAAEVYGTERQPRTHYYAVAVVKKGGSFQLNELQGLKSCHTGLRRTAGWNVPIGTLRPFLNWTGPPEPIEAAVARFFSASCVPGADKGQFPNLCRLCAGTGENKCAFSSQEPYFSYSGAFKCLRDGAGDVAFIRESTVFEDLSDEAERDEYELLCPDNTRKPVDKFKDCHLARVPSHAVVARSVNGKEDAIWNLLRQAQEKFGKDKSPKFQLFGSPSGQKDLLFKDSAIGFSRVPPRIDSGLYLGSGYFTAIQNLRKSEEEVAARRARVVWCAVGEQELRKCNQWSGLSEGSVTCSSASTTEDCIALVLKGEADAMSLDGGYVYTAGKCGLVPVLAENYKSQQSSDPDPNCVDRPVEGYLAVAVVRRSDTSLTWNSVKGKKSCHTAVDRTAGWNIPMGLLFNQTGSCKFDEYFSQSCAPGSDPRSNLCALCIGDEQGENKCVPNSNERYYGYTGAFRCLAENAGDVAFVKDVTVLQNTDGNNNEAWAKDLKLADFALLCLDGKRKPVTEARSCHLAMAPNHAVVSRMDKVERLKQVLLHQQAKFGRNGSDCPDKFCLFQSETKNLLFNDNTECLARLHGKTTYEKYLGPQYVAGITNLKKCSTSPLLEACEFLRK
notes: antimicrobial and iron-carrying glycoprotein; B=400 μg/ml lactoferrin
For B1, the “effect on microvilli / villous atrophy by SEM, result in words” value (Caco-2 cells [1]) was “positive effect on the villi functionality”, the “dissolution of lactoferrin in aqueous solution, result in words” value [2] was “completely undissolved body in suspension” and the “reduction in LY flux with respect to positive control (PC)” value (Caco-2 cells [3]; product applied during 60 h glutamine deprivation, then 60 mM ethanol 4 h, 2 mM sodium butyrate and/or 400 μg/ml lactoferrin) was “about 12%”. The “permeability (LY), result in words” value (Caco-2 cells [3]; treatment at the same time as damage induction) was “not substantially changed compared to the negative control” and the “fluorescence intensity / expression of tight junction proteins (Occludin, Zonula Occludens), result in words” value [4] was “good level of expression of the tight junctions' markers”.
